From patent publication US20260085129A1 (ECO ANIMAL HEALTH, published 2026)

Columns and labels:
[1] = biological target: T1, porcine CD163 with deletion of SRCR domain 5, on pPAMΔ5 cells (porcine, UniProt Q2VL90 47-1115); experiment: P.E. FACS screening on pPAMΔ5 cells
T1 construct: also called pPAMΔ5 domain cells; pPAMΔ5 WT cells
T1 sequence: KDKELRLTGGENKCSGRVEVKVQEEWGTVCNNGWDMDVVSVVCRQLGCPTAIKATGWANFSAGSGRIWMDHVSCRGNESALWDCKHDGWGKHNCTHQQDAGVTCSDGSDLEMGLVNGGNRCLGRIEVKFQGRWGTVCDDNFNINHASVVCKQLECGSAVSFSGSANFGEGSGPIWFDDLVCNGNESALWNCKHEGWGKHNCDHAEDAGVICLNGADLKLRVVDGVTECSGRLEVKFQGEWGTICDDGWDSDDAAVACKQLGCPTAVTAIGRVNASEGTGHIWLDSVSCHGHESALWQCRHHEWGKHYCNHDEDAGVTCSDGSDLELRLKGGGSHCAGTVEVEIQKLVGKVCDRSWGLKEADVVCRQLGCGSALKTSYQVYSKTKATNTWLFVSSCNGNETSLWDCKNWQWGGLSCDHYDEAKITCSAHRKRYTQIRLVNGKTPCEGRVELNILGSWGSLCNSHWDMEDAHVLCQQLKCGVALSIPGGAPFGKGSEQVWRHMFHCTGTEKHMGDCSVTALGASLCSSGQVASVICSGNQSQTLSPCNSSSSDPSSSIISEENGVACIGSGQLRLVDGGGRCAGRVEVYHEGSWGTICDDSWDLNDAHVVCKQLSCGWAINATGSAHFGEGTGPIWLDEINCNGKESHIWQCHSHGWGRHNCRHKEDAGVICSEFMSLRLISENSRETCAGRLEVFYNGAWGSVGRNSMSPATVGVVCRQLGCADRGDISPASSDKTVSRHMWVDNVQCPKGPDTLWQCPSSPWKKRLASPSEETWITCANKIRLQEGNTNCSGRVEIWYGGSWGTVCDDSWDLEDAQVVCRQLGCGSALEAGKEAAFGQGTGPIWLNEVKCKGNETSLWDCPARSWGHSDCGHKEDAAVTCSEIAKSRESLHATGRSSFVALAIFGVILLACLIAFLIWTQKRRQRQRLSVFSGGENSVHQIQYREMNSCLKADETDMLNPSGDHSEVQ

[2] = biological target: T2, porcine CD163, membrane-bound form on porcine pulmonary alveolar macrophage (pPAM) WT cells (porcine, UniProt Q2VL90 47-1115); experiment: P.E. FACS screening on pPAM WT cells
T2 construct: Native CD163 on primary cells; also called membrane CD163; cell-surface CD163
T2 sequence: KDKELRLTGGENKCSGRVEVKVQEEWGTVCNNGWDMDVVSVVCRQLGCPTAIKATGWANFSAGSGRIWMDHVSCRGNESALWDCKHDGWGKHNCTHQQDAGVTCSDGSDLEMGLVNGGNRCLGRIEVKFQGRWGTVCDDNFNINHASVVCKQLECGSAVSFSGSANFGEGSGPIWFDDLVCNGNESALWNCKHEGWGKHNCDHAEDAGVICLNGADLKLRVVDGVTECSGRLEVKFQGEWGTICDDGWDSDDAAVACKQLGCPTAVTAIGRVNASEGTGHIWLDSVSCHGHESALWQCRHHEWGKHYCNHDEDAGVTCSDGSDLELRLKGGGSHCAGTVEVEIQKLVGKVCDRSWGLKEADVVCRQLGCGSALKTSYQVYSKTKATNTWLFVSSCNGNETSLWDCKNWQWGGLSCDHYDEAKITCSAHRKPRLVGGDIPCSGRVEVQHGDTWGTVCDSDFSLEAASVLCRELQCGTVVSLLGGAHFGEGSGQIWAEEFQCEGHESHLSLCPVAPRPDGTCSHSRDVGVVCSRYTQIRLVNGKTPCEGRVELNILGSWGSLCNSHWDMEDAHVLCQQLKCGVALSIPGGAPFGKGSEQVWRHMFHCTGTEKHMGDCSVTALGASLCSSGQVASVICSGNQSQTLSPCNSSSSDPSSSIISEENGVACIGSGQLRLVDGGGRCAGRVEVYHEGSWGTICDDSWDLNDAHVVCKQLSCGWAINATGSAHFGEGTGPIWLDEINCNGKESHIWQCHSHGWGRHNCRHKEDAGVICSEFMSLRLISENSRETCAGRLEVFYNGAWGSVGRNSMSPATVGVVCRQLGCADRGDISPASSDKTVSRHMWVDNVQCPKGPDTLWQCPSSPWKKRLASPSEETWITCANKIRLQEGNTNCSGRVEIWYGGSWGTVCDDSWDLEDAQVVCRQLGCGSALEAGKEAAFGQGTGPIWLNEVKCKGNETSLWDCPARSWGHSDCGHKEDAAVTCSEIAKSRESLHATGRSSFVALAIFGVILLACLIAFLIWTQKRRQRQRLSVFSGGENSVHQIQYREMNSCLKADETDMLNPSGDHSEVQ

[3] = biological target: T2, porcine CD163, membrane-bound form on …; experiment: cell-based or functional assay
[4] = biological target: T2, porcine CD163, membrane-bound form on …; experiment: cell-based or functional assay; remark: listed apart in the source
[5] = biological target: T2, porcine CD163, membrane-bound form on …; experiment: dose-response FACS on pPAM WT cells, anti-FLAG-biotin and streptavidin R-PE detection
Method: Biparatopic and triparatopic antibody constructs in PBS (pH7.4) were diluted in a 3-fold serial dilutions from 150 nM down to 0.023 nM in FACS buffer (0.5% FBS, 0.5 mM EDTA in 1×PBS pH7.4). Biparatopic and triparatopic candidates were incubated with anti-FLAG-Biotin (Sigma, Cat. nr. F9291), for 30 min on ice with shaking. This mixture was added to pPAM WT cells and incubated for 60 min on ice with gentle shaking. Cells were washed 3×with 150 μl/well of FACS buffer and incubated with 50 μl/well of the secondary detection reagent Streptavidin R-P.E. conjugate antibody (Invitrogen, Cat. nr. SA10044) for 30 min on ice with shaking and protected from light. Cells were then washed 3× with 150 μl/well of FACS Buffer and resuspended in 50 μl/well of FACS buffer to be measured on a FACS machine (Attune™ N×T), and a total of 10000 cells were acquired per sample.

B1: Clone 17-H03D03 VHH antibody (VHH)
VHH: QLQLVESGGGLVQPGGSLRLSCAASGFTLDDYTIGWFRQAPGKEREGVSCINSITSNTYYADSVKGRFTISRDNAKNTVYLQMNSLTAEDTAIYYCAADSGLFSGSSCLKYRAMRFGSWGQGTQVTVSS
notes: Tested as periplasmic extract in ELISA and FACS screening; also called VHH 017 (3D03)
binding result [1]: no binding | binding result [2]: binds

B2: 17B11 + 03E11 + 03D03 2(G4S) triparatopic VHH construct (bispecific antibody)
chain: QVQLVESGGGLVQAGGSLRLSCAASGRTFSSYAMGWFRQTPGKDREFVARIGWTGGTTIYADSVKGRFTISRDNAKNTVYLQMNSLKPEDTAVYYCAADQAGWRTAGVRNTYEYDYWGQGTQVTVSSGGGGSGGGGSQVQLQESGGGLVQVGSSLRLSCVTSGRTPSRYVMGWFRQAPGQEREFVAAISWSGRAPYADSVKGRFTISRDNAKNTVYLQMNSLKPEDTGVYYCAGGEGAIKWTTLDAYDYWGQGTQVTVSSGGGGSGGGGSQLQLVESGGGLVQPGGSLRLSCAASGFTLDDYTIGWFRQAPGKEREGVSCINSITSNTYYADSVKGRFTISRDNAKNTVYLQMNSLTAEDTAIYYCAADSGLFSGSSCLKYRAMRFGSWGQGTQVTVSS
notes: Triparatopic; also called Tri-10; Triparatopic-10; not shown: FLAG and His tags
IC50, PRRSV1 LT3 infection assay, high CD163 porcine serum [3]: 4.02 nM | IC50, PRRSV1 LT3 infection assay, low CD163 porcine serum [3]: 3.41 nM | IC50, PRRSV2 strain MN184 infection assay, 10% FBS [4]: 2.84 nM | IC50, PRRSV2 strain NA174 infection assay, high CD163 porcine serum [4]: 7.6 nM | IC50, PRRSV2 strain NA174 infection assay, low CD163 porcine serum [4]: 3.94 nM | EC50 [5]: 11.6 nM

B3: Clone 19-H03E11 VHH antibody (VHH)
VHH: QVQLQESGGGLVQVGSSLRLSCVTSGRTPSRYVMGWFRQAPGQEREFVAAISWSGRAPYADSVKGRFTISRDNAKNTVYLQMNSLKPEDTGVYYCAGGEGAIKWTTLDAYDYWGQGTQVTVSS
notes: Tested as periplasmic extract in ELISA and FACS screening; also called VHH 019 (3E11)
binding result [1]: no binding | binding result [2]: binds

B4: 03D03 + 17B11 + 03E11 2(G4S) triparatopic VHH construct (bispecific antibody)
chain: QLQLVESGGGLVQPGGSLRLSCAASGFTLDDYTIGWFRQAPGKEREGVSCINSITSNTYYADSVKGRFTISRDNAKNTVYLQMNSLTAEDTAIYYCAADSGLFSGSSCLKYRAMRFGSWGQGTQVTVSSGGGGSGGGGSQVQLVESGGGLVQAGGSLRLSCAASGRTFSSYAMGWFRQTPGKDREFVARIGWTGGTTIYADSVKGRFTISRDNAKNTVYLQMNSLKPEDTAVYYCAADQAGWRTAGVRNTYEYDYWGQGTQVTVSSGGGGSGGGGSQVQLQESGGGLVQVGSSLRLSCVTSGRTPSRYVMGWFRQAPGQEREFVAAISWSGRAPYADSVKGRFTISRDNAKNTVYLQMNSLKPEDTGVYYCAGGEGAIKWTTLDAYDYWGQGTQVTVSS
notes: Triparatopic; not shown: FLAG and His tags
EC50 [5]: 13.6 nM

B5: 17B11 + 03D03 + 03E11 2(G4S) triparatopic VHH construct (bispecific antibody)
chain: QVQLVESGGGLVQAGGSLRLSCAASGRTFSSYAMGWFRQTPGKDREFVARIGWTGGTTIYADSVKGRFTISRDNAKNTVYLQMNSLKPEDTAVYYCAADQAGWRTAGVRNTYEYDYWGQGTQVTVSSGGGGSGGGGSQLQLVESGGGLVQPGGSLRLSCAASGFTLDDYTIGWFRQAPGKEREGVSCINSITSNTYYADSVKGRFTISRDNAKNTVYLQMNSLTAEDTAIYYCAADSGLFSGSSCLKYRAMRFGSWGQGTQVTVSSGGGGSGGGGSQVQLQESGGGLVQVGSSLRLSCVTSGRTPSRYVMGWFRQAPGQEREFVAAISWSGRAPYADSVKGRFTISRDNAKNTVYLQMNSLKPEDTGVYYCAGGEGAIKWTTLDAYDYWGQGTQVTVSS
notes: as for B4
EC50 [5]: 8 nM

B6: 03E11 + 03D03 + 17B11 2(G4S) triparatopic VHH construct (bispecific antibody)
chain: QVQLQESGGGLVQVGSSLRLSCVTSGRTPSRYVMGWFRQAPGQEREFVAAISWSGRAPYADSVKGRFTISRDNAKNTVYLQMNSLKPEDTGVYYCAGGEGAIKWTTLDAYDYWGQGTQVTVSSGGGGSGGGGSQLQLVESGGGLVQPGGSLRLSCAASGFTLDDYTIGWFRQAPGKEREGVSCINSITSNTYYADSVKGRFTISRDNAKNTVYLQMNSLTAEDTAIYYCAADSGLFSGSSCLKYRAMRFGSWGQGTQVTVSSGGGGSGGGGSQVQLVESGGGLVQAGGSLRLSCAASGRTFSSYAMGWFRQTPGKDREFVARIGWTGGTTIYADSVKGRFTISRDNAKNTVYLQMNSLKPEDTAVYYCAADQAGWRTAGVRNTYEYDYWGQGTQVTVSS
notes: Triparatopic: three anti-porcine CD163 VHHs in one chain; also called Tri-2; Tri2; not shown: FLAG and His tags
IC50, PRRSV1 LT3 infection assay, high CD163 porcine serum [3]: 2.96 nM | IC50, PRRSV1 LT3 infection assay, low CD163 porcine serum [3]: 2.81 nM | IC50, PRRSV2 strain MN184 infection assay, 10% FBS [4]: 2.13 nM | IC50, PRRSV2 strain NA174 infection assay, high CD163 porcine serum [4]: 5.01 nM | IC50, PRRSV2 strain NA174 infection assay, low CD163 porcine serum [4]: 4.99 nM | EC50 [5]: 9.1 nM

B7: 03D03 + 03E11 + 17B11 2(G4S) triparatopic VHH construct (bispecific antibody)
chain: QLQLVESGGGLVQPGGSLRLSCAASGFTLDDYTIGWFRQAPGKEREGVSCINSITSNTYYADSVKGRFTISRDNAKNTVYLQMNSLTAEDTAIYYCAADSGLFSGSSCLKYRAMRFGSWGQGTQVTVSSGGGGSGGGGSQVQLQESGGGLVQVGSSLRLSCVTSGRTPSRYVMGWFRQAPGQEREFVAAISWSGRAPYADSVKGRFTISRDNAKNTVYLQMNSLKPEDTGVYYCAGGEGAIKWTTLDAYDYWGQGTQVTVSSGGGGSGGGGSQVQLVESGGGLVQAGGSLRLSCAASGRTFSSYAMGWFRQTPGKDREFVARIGWTGGTTIYADSVKGRFTISRDNAKNTVYLQMNSLKPEDTAVYYCAADQAGWRTAGVRNTYEYDYWGQGTQVTVSS
notes: as for B4
EC50 [5]: 3.8 nM
